Data taken from patent US20200339967, “CAS12C COMPOSITIONS AND METHODS OF USE” (The Regents of the University of California, published 2020).

How the values were obtained:
[1] = biological target: T1, Cas12c_1 (C2c3_1); test: pulldown; trancRNA co-purified with Cas12c and guide RNA; RNA sequencing and urea-PAGE; long vs short form not distinguished in text
T1 chain: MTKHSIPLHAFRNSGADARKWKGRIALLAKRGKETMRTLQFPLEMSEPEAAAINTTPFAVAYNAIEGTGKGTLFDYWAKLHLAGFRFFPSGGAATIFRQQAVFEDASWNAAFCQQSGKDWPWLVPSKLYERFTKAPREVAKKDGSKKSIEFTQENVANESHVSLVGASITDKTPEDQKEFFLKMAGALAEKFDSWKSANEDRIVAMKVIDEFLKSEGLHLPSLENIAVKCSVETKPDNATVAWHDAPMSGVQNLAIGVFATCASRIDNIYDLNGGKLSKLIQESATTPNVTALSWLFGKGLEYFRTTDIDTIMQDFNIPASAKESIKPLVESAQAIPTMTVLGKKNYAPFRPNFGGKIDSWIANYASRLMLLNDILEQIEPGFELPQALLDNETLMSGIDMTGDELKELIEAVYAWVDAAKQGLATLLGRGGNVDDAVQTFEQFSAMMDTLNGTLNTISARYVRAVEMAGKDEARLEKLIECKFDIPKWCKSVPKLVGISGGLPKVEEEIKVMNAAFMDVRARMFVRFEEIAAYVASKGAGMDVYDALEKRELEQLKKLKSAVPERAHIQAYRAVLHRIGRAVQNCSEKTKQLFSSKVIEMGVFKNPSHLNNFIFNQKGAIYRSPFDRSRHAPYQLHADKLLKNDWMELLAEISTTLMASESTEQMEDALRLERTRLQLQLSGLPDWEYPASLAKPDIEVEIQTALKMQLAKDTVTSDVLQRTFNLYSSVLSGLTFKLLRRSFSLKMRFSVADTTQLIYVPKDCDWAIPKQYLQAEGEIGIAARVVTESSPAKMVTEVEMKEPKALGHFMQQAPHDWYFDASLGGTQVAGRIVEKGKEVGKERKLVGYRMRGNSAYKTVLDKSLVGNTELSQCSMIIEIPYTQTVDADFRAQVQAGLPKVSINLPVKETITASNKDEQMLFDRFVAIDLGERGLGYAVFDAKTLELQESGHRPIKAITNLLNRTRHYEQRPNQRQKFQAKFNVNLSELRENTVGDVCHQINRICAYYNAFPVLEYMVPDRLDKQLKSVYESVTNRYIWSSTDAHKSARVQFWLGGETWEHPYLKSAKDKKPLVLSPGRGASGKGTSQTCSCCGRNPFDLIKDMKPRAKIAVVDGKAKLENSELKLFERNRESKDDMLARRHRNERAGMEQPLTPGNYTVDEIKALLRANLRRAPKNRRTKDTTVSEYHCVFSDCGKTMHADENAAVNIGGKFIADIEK
Description: FIG. 3. The Cas12c CRISPR/Cas locus (for the Cas12c_1 protein) was transferred to and expressed in E. coli. Results from the RNA mapping of the Cas12c locus are presented (Top). In addition, the Cas12c protein was tagged and purified, and the RNA that was associated with the protein was sequenced, and results from the RNA mapping are presented (bottom). Both mapping results indicated the existence of a highly transcribed non-coding transcript adjacent to the Cas1-encoding sequence but on the opposite side of the Cas1-encoding sequence as the CRISPR array (Small repeating aligned arrows represent the repeats of the CRISPR array). The highly transcribed noncoding RNA is not complementary to the directed repeat as are transactivating CRISPR RNAs (tracrRNA). The transactivating noncoding RNA is referred herein as “trancRNA”.
FIG. 4. RNAs that pulled down (co-purified) with the Cas12c protein were run on urea-PAGE gels, confirming the presence of guide RNA and trancRNA.

[2] = biological target: T1, Cas12c_1 (C2c3_1); test: pulldown; trancRNA co-purified with Cas12c and guide RNA; long vs short form not distinguished in text

B1: Cas12c_1 trancRNA (long) (ssRNA)
RNA: AUACCACCCGUGCAUUUCUGGAUCAAUGAUCCGUACCUCAAUGUCCGGGCGCGCAGCUAGAGCGACCUGAAAUCUGCACGAAAACCGGCGAAAGCCGGUUUUUUGU
B1: binds [1].

B2: Cas12c_1 trancRNA (short) (ssRNA)
RNA: AUACCACCCGUGCAUUUCUGGAUCAAUGAUCCGUACCUCAAUGUCCGGGCGCGCAGCUAGAGCGACCUGAAAUCU
B2: binds [2].
